B1: TPR t1 (parent)
chain: GACCAAUCUGCCCUCAGAGCUCGAGAACAUCUUCGGAUGCAGAGGAGGCAGGCUUCGGUGGCGCGAUAGCGCCAACGUCCUCAACCUCCAAUGCAUCCCACCACAUGAUGAUGCCUGAAGAGCCUUGGUUUUUUG

Variants of B1 are the subject of the data set. Nature of the data set: polymerase ribozyme fitness, log enrichment relative to wild type (log ratio); higher = more active; in vitro selection for triplet polymerase activity. Summed up: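 Mutant libraries were PCR-built and transcribed for each subunit of a heterodimeric triplet polymerase ribozyme and selected for one round in triplicate at −7 °C, frozen, before gel excision of extended constructs and streptavidin-bead capture. Input and output libraries were Illumina-sequenced, keeping genotypes with ≥10 input reads and ≥1 read per output. Fitness is a logarithmic ratio of genotype to wild-type enrichment, in base 2, using inverse-variance-weighted replicate averages.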
As to G61U A83G U112C, the “polymerase ribozyme fitness (log ratio)” value turned out to be 1.59.

For the variant C62A A105G, the “polymerase ribozyme fitness (log ratio)” value was -4.17.

Turning to G61A G127C, the “polymerase ribozyme fitness (log ratio)” value is -0.956.

Consider U59C G127C, for which the “polymerase ribozyme fitness (log ratio)” value was -1.09.

Turning to G60C A90C C97U G117C, the “polymerase ribozyme fitness (log ratio)” value was -6.07.

With G60A C101G, the “polymerase ribozyme fitness (log ratio)” value was -1.57.

Take G61C C114U: the “polymerase ribozyme fitness (log ratio)” value is -4.

For G61U A90U, the “polymerase ribozyme fitness (log ratio)” value was -2.11.

G60A A91U: the “polymerase ribozyme fitness (log ratio)” value is -1.09.

As to G61C C94U U130A U131G, the “polymerase ribozyme fitness (log ratio)” value is -3.54.

Turning to G61A C82U C115A, the “polymerase ribozyme fitness (log ratio)” value stood at 0.0919.

For G60U G61U C104A, the “polymerase ribozyme fitness (log ratio)” value is -5.16.

G61C A74C C85U: the “polymerase ribozyme fitness (log ratio)” value was -5.35.

For G61A G135A, the “polymerase ribozyme fitness (log ratio)” value was -1.88.

As for G61C G107A U112A G117U, the “polymerase ribozyme fitness (log ratio)” value was -6.86.

Turning to G61A G110A, the “polymerase ribozyme fitness (log ratio)” value was -0.516.

For G60C G77A, the “polymerase ribozyme fitness (log ratio)” value was -1.47.

Turning to G61A U116A, the “polymerase ribozyme fitness (log ratio)” value is -2.68.

Turning to G61A A90G G128U, the “polymerase ribozyme fitness (log ratio)” value was -1.55.

Regarding G61A A66G C104A, the “polymerase ribozyme fitness (log ratio)” value is -3.27.

As to G61A C88A C114G U116C G122A, the “polymerase ribozyme fitness (log ratio)” value was -5.26.

In the case of G60A C97G G117C, the “polymerase ribozyme fitness (log ratio)” value is -6.67.

Regarding G61A U112A, the “polymerase ribozyme fitness (log ratio)” value came to 1.31.

Regarding G61A U112G, the “polymerase ribozyme fitness (log ratio)” value came to 0.603.

For the variant G60C C79A C88G, the “polymerase ribozyme fitness (log ratio)” value was -2.51.

For the variant G61C C104A, the “polymerase ribozyme fitness (log ratio)” value is -3.92.

As to G60A C123G, the “polymerase ribozyme fitness (log ratio)” value stood at 1.63.

With G60A C82A U106A G120A, the “polymerase ribozyme fitness (log ratio)” value amounted to 0.0586.

In the case of U59G C72A, the “polymerase ribozyme fitness (log ratio)” value is -2.02.

For G61A A84C, the “polymerase ribozyme fitness (log ratio)” value was 0.126.

For the variant G60A C99U, the “polymerase ribozyme fitness (log ratio)” value was -2.87.

As for G61U C82A, the “polymerase ribozyme fitness (log ratio)” value was -0.605.

On to G60A A100C C104U C123A, for which the “polymerase ribozyme fitness (log ratio)” value is -0.726.

Consider U59C G110A, for which the “polymerase ribozyme fitness (log ratio)” value was -1.31.

Turning to G61A C73G, the “polymerase ribozyme fitness (log ratio)” value is -1.15.

Take C62A C72U G93C: the “polymerase ribozyme fitness (log ratio)” value is -1.64.

In the case of G61C C97U, the “polymerase ribozyme fitness (log ratio)” value is -2.51.

Consider G61C C80G G117C, for which the “polymerase ribozyme fitness (log ratio)” value is -7.35.

G60U G93C C104A G113C: the “polymerase ribozyme fitness (log ratio)” value was -4.47.

With G61C C89U G113C G120C, the “polymerase ribozyme fitness (log ratio)” value was -4.9.

In the case of C62A C101A C114A, the “polymerase ribozyme fitness (log ratio)” value is -3.81.

Consider C62A C82A C85U, for which the “polymerase ribozyme fitness (log ratio)” value is -2.3.

For G60A C79U U130A, the “polymerase ribozyme fitness (log ratio)” value is 0.0156.

As for G61U A118G, the “polymerase ribozyme fitness (log ratio)” value worked out at 0.1.

G61A C104U: the “polymerase ribozyme fitness (log ratio)” value was found to be 0.241.

As for G61C A90U G93A, the “polymerase ribozyme fitness (log ratio)” value is -4.85.

Consider G60C U92G, for which the “polymerase ribozyme fitness (log ratio)” value is -3.59.

Consider G60U G117U, for which the “polymerase ribozyme fitness (log ratio)” value is -1.65.

Turning to G61A G117U, the “polymerase ribozyme fitness (log ratio)” value was -2.02.

As to G60A U116G, the “polymerase ribozyme fitness (log ratio)” value is -2.22.

On to C62A G93U C101G, for which the “polymerase ribozyme fitness (log ratio)” value was -5.19.

On to C62A U78A A91U A111C, for which the “polymerase ribozyme fitness (log ratio)” value is -4.78.

For the variant G60A C89U, the “polymerase ribozyme fitness (log ratio)” value was -0.18.

As to C62A A103U, the “polymerase ribozyme fitness (log ratio)” value is -5.71.

Turning to U59G C85U G113A, the “polymerase ribozyme fitness (log ratio)” value is -1.67.

As to G61C G93U U130A, the “polymerase ribozyme fitness (log ratio)” value was -3.65.

Take U59G U92G G110A U133C: the “polymerase ribozyme fitness (log ratio)” value was -4.4.

C62A U81A G93A: the “polymerase ribozyme fitness (log ratio)” value is -2.69.

G61U C89A: the “polymerase ribozyme fitness (log ratio)” value is -1.5.

Consider U59C C70A, for which the “polymerase ribozyme fitness (log ratio)” value is -2.41.

Regarding U59C G107A, the “polymerase ribozyme fitness (log ratio)” value was -5.95.

Take G61U C115G G117A G122U U126C: the “polymerase ribozyme fitness (log ratio)” value was -4.57.

In the case of G61U C86A A119C G120A, the “polymerase ribozyme fitness (log ratio)” value is -2.79.

With G61C G110U, the “polymerase ribozyme fitness (log ratio)” value was -3.71.

For G61A C62U, the “polymerase ribozyme fitness (log ratio)” value is -1.86.

As to C62A U116G G120C U129A, the “polymerase ribozyme fitness (log ratio)” value was -3.57.

Regarding G60C A121G, the “polymerase ribozyme fitness (log ratio)” value was 1.05.

G60A U133A: the “polymerase ribozyme fitness (log ratio)” value is -0.249.

G61U A83C: the “polymerase ribozyme fitness (log ratio)” value was -0.327.

Consider G60U G93C, for which the “polymerase ribozyme fitness (log ratio)” value is -0.936.

For the variant G60U G93A, the “polymerase ribozyme fitness (log ratio)” value is -0.449.

In the case of G61C C82U, the “polymerase ribozyme fitness (log ratio)” value was -1.83.

For G61C C73U C85U G117A U129C, the “polymerase ribozyme fitness (log ratio)” value was -5.49.

As for G60A G117C A121U, the “polymerase ribozyme fitness (log ratio)” value is -2.7.

Take G61C C104U G110A: the “polymerase ribozyme fitness (log ratio)” value was -2.86.

As for G60C G61A U96A, the “polymerase ribozyme fitness (log ratio)” value was -2.15.

For the variant U59G A83C C97U, the “polymerase ribozyme fitness (log ratio)” value was -0.481.

With G60U A84U C102A U134G, the “polymerase ribozyme fitness (log ratio)” value is -2.03.

For G61C U109A, the “polymerase ribozyme fitness (log ratio)” value was -4.34.

G60U A90U: the “polymerase ribozyme fitness (log ratio)” value is -1.1.

In the case of U59G C101U U131G U133A, the “polymerase ribozyme fitness (log ratio)” value is -0.675.

As for G60A C124G, the “polymerase ribozyme fitness (log ratio)” value worked out at 1.59.

Turning to G61A U78C, the “polymerase ribozyme fitness (log ratio)” value is -0.183.
